Measured values taken from publication PMC7205012 (Neuron, 2019).

Biological target: the molecule itself
Experiment: cryo-EM structure

Row | Protein | stoichiometry N
1 | wild type human TRPA1 (transient receptor potential channel subfamily A member 1) (natural protein, UniProt O75762 1-1119, looked up, C621 covalently bound to JT010 (TRPA1_(WT-JT010)) or to BITC (TRPA1_(WT-BITC)); N747 glycosylated (two N-acetylglucosamine)) MKRSLRKMWRPGEKKEPQGVVYEDVPDDTEDFKESLKVVFEGSAYGLQNFNKQKKLKRCDDMDTFFLHYAAAEGQIELMEKITRDSSLEVLHEMDDYGNTPLHCAVEKNQIESVKFLLSRGANPNLRNFNMMAPLHIAVQGMNNEVMKVLLEHRTIDVNLEGENGNTAVIIACTTNNSEALQILLKKGAKPCKSNKWGCFPIHQAAFSGSKECMEIILRFGEEHGYSRQLHINFMNNGKATPLHLAVQNGDLEMIKMCLDNGAQIDPVEKGRCTAIHFAATQGATEIVKLMISSYSGSVDIVNTTDGCHETMLHRASLFDHHELADYLISVGADINKIDSEGRSPLILATASASWNIVNLLLSKGAQVDIKDNFGRNFLHLTVQQPYGLKNLRPEFMQMQQIKELVMDEDNDGCTPLHYACRQGGPGSVNNLLGFNVSIHSKSKDKKSPLHFAASYGRINTCQRLLQDISDTRLLNEGDLHGMTPLHLAAKNGHDKVVQLLLKKGALFLSDHNGWTALHHASMGGYTQTMKVILDTNLKCTDRLDEDGNTALHFAAREGHAKAVALLLSHNADIVLNKQQASFLHLALHNKRKEVVLTIIRSKRWDECLKIFSHNSPGNKCPITEMIEYLPECMKVLLDFCMLHSTEDKSCRDYYIEYNFKYLQCPLEFTKKTPTQDVIYEPLTALNAMVQNNRIELLNHPVCKEYLLMKWLAYGFRAHMMNLGSYCLGLIPMTILVVNIKPGMAFNSTGIINETSDHSEILDTTNSYLIKTCMILVFLSSIFGYCKEAGQIFQQKRNYFMDISNVLEWIIYTTGIIFVLPLFVEIPAHLQWQCGAIAVYFYWMNFLLYLQRFENCGIFIVMLEVILKTLLRSTVVFIFLLLAFGLSFYILLNLQDPFSSPLLSIIQTFSMMLGDINYRESFLEPYLRNELAHPVLSFAQLVSFTIFVPIVLMNLLIGLAVGDIAEVQKHASLKRIAMQVELHTSLEKKLPLWFLRKVDQKSTIVYPNKPRSGGMLFHIFCFLFCTGEIRQEIPNADKSLEMEILKQKYRLKDLTFLLEKQHELIKLIIQKMEIISETEDDDSHCSFQDRFKKEQMEQRNSRWNTVLRAVKAKTHHLEP | 4
2 | human TRPA1 C621S (natural protein, UniProt O75762 1-1119, looked up) MKRSLRKMWRPGEKKEPQGVVYEDVPDDTEDFKESLKVVFEGSAYGLQNFNKQKKLKRCDDMDTFFLHYAAAEGQIELMEKITRDSSLEVLHEMDDYGNTPLHCAVEKNQIESVKFLLSRGANPNLRNFNMMAPLHIAVQGMNNEVMKVLLEHRTIDVNLEGENGNTAVIIACTTNNSEALQILLKKGAKPCKSNKWGCFPIHQAAFSGSKECMEIILRFGEEHGYSRQLHINFMNNGKATPLHLAVQNGDLEMIKMCLDNGAQIDPVEKGRCTAIHFAATQGATEIVKLMISSYSGSVDIVNTTDGCHETMLHRASLFDHHELADYLISVGADINKIDSEGRSPLILATASASWNIVNLLLSKGAQVDIKDNFGRNFLHLTVQQPYGLKNLRPEFMQMQQIKELVMDEDNDGCTPLHYACRQGGPGSVNNLLGFNVSIHSKSKDKKSPLHFAASYGRINTCQRLLQDISDTRLLNEGDLHGMTPLHLAAKNGHDKVVQLLLKKGALFLSDHNGWTALHHASMGGYTQTMKVILDTNLKCTDRLDEDGNTALHFAAREGHAKAVALLLSHNADIVLNKQQASFLHLALHNKRKEVVLTIIRSKRWDECLKIFSHNSPGNKSPITEMIEYLPECMKVLLDFCMLHSTEDKSCRDYYIEYNFKYLQCPLEFTKKTPTQDVIYEPLTALNAMVQNNRIELLNHPVCKEYLLMKWLAYGFRAHMMNLGSYCLGLIPMTILVVNIKPGMAFNSTGIINETSDHSEILDTTNSYLIKTCMILVFLSSIFGYCKEAGQIFQQKRNYFMDISNVLEWIIYTTGIIFVLPLFVEIPAHLQWQCGAIAVYFYWMNFLLYLQRFENCGIFIVMLEVILKTLLRSTVVFIFLLLAFGLSFYILLNLQDPFSSPLLSIIQTFSMMLGDINYRESFLEPYLRNELAHPVLSFAQLVSFTIFVPIVLMNLLIGLAVGDIAEVQKHASLKRIAMQVELHTSLEKKLPLWFLRKVDQKSTIVYPNKPRSGGMLFHIFCFLFCTGEIRQEIPNADKSLEMEILKQKYRLKDLTFLLEKQHELIKLIIQKMEIISETEDDDSHCSFQDRFKKEQMEQRNSRWNTVLRAVKAKTHHLEP | 4
